T1: soluble recombinant of human TL1A (His6, GS linker, Leu72-Leu251) (UniProt O95150 72-251)
T1 chain: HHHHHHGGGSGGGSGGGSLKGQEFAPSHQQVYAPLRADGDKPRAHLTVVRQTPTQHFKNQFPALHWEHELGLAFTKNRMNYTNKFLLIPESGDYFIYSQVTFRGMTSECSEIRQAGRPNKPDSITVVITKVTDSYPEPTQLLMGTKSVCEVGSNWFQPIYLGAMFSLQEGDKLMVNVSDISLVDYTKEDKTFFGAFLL

T2: soluble recombinant of human LIGHT (His10, GS linker, Asp74-Val240)
T2 chain: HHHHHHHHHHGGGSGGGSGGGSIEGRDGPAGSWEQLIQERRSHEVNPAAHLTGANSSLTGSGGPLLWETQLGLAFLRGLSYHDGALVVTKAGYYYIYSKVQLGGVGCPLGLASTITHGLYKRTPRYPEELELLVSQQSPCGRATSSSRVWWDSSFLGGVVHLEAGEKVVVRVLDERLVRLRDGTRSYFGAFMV

T3: soluble recombinant of human FasL (His6, Pro134-Leu281) (UniProt P48023 134-281)
T3 chain: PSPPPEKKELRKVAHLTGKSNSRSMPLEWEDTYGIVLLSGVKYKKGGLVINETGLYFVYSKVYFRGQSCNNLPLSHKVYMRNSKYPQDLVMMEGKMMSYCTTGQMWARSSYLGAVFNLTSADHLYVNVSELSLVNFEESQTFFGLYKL

T4: DcR3 FL-Fc (R&D Systems, Inc.) (human, UniProt O95407 30-300)
T4 construct: Bought product made in insect cells; also called DcR3-Fc (R&D Systems, Inc.); DcR3 FL-Fc (IgG1)
T4 sequence: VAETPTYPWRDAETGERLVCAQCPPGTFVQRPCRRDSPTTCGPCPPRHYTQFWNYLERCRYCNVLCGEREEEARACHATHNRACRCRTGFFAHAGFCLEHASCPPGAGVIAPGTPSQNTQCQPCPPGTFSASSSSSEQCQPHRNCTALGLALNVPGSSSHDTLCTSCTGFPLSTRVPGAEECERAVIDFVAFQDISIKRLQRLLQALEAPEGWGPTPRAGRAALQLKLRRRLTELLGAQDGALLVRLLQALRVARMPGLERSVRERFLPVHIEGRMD


Target: T1, soluble recombinant of human TL1A …
Assay: BIAcore SPR
In short: (§1)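 On a BIAcore T-100 or T-200 instrument (GE Healthcare), with HBS-EP+ Buffer, surface plasmon resonance measured binding of each test molecule to soluble recombinant His-tagged LIGHT, TL1A or FasL. These proteins were of human or cynomolgus monkey origin. The dissociation constant (Kd, nM) was derived from the resulting data.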

Kd [nM] | Binder
0.21 | DcR3 FL-Fc (R&D Systems, Inc.) (Fc fusion) VAETPTYPWRDAETGERLVCAQCPPGTFVQRPCRRDSPTTCGPCPPRHYTQFWNYLERCRYCNVLCGEREEEARACHATHNRACRCRTGFFAHAGFCLEHASCPPGAGVIAPGTPSQNTQCQPCPPGTFSASSSSSEQCQPHRNCTALGLALNVPGSSSHDTLCTSCTGFPLSTRVPGAEECERAVIDFVAFQDISIKRLQRLLQALEAPEGWGPTPRAGRAALQLKLRRRLTELLGAQDGALLVRLLQALRVARMPGLERSVRERFLPVHIEGRMD

Target: T2, soluble recombinant of human LIGHT …
Assay: BIAcore SPR
In short: as §1

Kd [nM] | Binder
0.21 | DcR3 FL-Fc (R&D Systems, Inc.) (Fc fusion) VAETPTYPWRDAETGERLVCAQCPPGTFVQRPCRRDSPTTCGPCPPRHYTQFWNYLERCRYCNVLCGEREEEARACHATHNRACRCRTGFFAHAGFCLEHASCPPGAGVIAPGTPSQNTQCQPCPPGTFSASSSSSEQCQPHRNCTALGLALNVPGSSSHDTLCTSCTGFPLSTRVPGAEECERAVIDFVAFQDISIKRLQRLLQALEAPEGWGPTPRAGRAALQLKLRRRLTELLGAQDGALLVRLLQALRVARMPGLERSVRERFLPVHIEGRMD

Target: T3, soluble recombinant of human FasL …
Assay: BIAcore SPR
In short: as §1

Kd [nM] | Binder
0.93 | DcR3 FL-Fc (R&D Systems, Inc.) (Fc fusion) VAETPTYPWRDAETGERLVCAQCPPGTFVQRPCRRDSPTTCGPCPPRHYTQFWNYLERCRYCNVLCGEREEEARACHATHNRACRCRTGFFAHAGFCLEHASCPPGAGVIAPGTPSQNTQCQPCPPGTFSASSSSSEQCQPHRNCTALGLALNVPGSSSHDTLCTSCTGFPLSTRVPGAEECERAVIDFVAFQDISIKRLQRLLQALEAPEGWGPTPRAGRAALQLKLRRRLTELLGAQDGALLVRLLQALRVARMPGLERSVRERFLPVHIEGRMD

What follows are binders tested against T4, DcR3 FL-Fc (R&D Systems, Inc.) (assay: SPR, binder captured).
Description: Regarding each of the various wild-type DcR3 controls and the DcR3 variants shown in Table 9, the binding activities to DcR3 ligands (LIGHT, TL1A, FasL) were analyzed by the SPR method using BIAcore T-100 (GE Healthcare). As the buffer, HBS-EP+Buffer was used.
After 10,000 RU of anti-human antibodies were immobilized to Series S Sensor Chip CM5 using Human Antibody Capture Kit (GE Healthcare), various wild-type DcR3 controls and DcR3 variants were injected at the flow rate of 10 μL/min for 30 seconds and captured. Meanwhile, the buffer containing no protein was injected into reference flow cells. Thereafter, as an analyte, DcR3 ligands of a human, a cynomolgus monkey or a mouse diluted to 0.08 to 80 nmol/L were injected at 10 μL/min for 2 minutes to monitor the binding, and subsequently the buffer was injected for 3 minutes to monitor dissociation. Then, 3 mol/L magnesium chloride was injected at 20 μL/min for 1 minute to perform a regeneration reaction. […] As a result of measurement, except for mouse LIGHT for which a trimer could not be produced, it was confirmed that various wild-type DcR3 controls and DcR3 variants bind to each DcR3 ligand of a human, a cynomolgus monkey or a mouse.

Kd [nM] | koff [s⁻¹] | kon [M⁻¹ s⁻¹] | binding result | Binder
0.92 | 0.00035 | 380000 | – | soluble recombinant of cynomolgus monkey TL1A (His6, GS linker, Leu72-Leu251) (ligand, also called His6-cynoTL1A) HHHHHHGGGSGGGSGGGSLKGQEFAPSHQQVYAPLRADGDKPRAHLTVVRQTPTQHLKNQFPALHWEHELGLAFTKNRMNYTNKFLLIPESGDYFVYSQVTFRGMTSECSEIRQAGRPNKPDSITVVITKVTDSYPEPTQLLMGTKSVCEVGSNWFQPIYLGAMFSLQEGDKLMVNVSDISLVDYTKEDKTFFGAFLL
1.1 | 0.0004 | 380000 | – | soluble recombinant of human LIGHT (His10, GS linker, Asp74-Val240) (ligand) HHHHHHHHHHGGGSGGGSGGGSIEGRDGPAGSWEQLIQERRSHEVNPAAHLTGANSSLTGSGGPLLWETQLGLAFLRGLSYHDGALVVTKAGYYYIYSKVQLGGVGCPLGLASTITHGLYKRTPRYPEELELLVSQQSPCGRATSSSRVWWDSSFLGGVVHLEAGEKVVVRVLDERLVRLRDGTRSYFGAFMV
– | – | – | no binding (tested: 0.08 to 80 nmol/L) | soluble recombinant of mouse LIGHT (His10, GS linker, Asp72-Val239) (ligand) HHHHHHHHHHGGGSGGGSGGGSIEGRDGGKGSWEKLIQDQRSHQANPAAHLTGANASLIGIGGPLLWETRLGLAFLRGLTYHDGALVTMEPGYYYVYSKVQLSGVGCPQGLANGLPITHGLYKRTSRYPKELELLVSRRSPCGRANSSRVWWDSSFLGGVVHLEAGEEVVVRVPGNRLVRPRDGTRSYFGAFMV

The next lines start with the binder.

Binder | Kd [nM] | koff [s⁻¹] | kon [M⁻¹ s⁻¹] | binding result
soluble recombinant of human TL1A (His6, GS linker, Leu72-Leu251) (ligand, also called His6-TL1A; hTL1A) HHHHHHGGGSGGGSGGGSLKGQEFAPSHQQVYAPLRADGDKPRAHLTVVRQTPTQHFKNQFPALHWEHELGLAFTKNRMNYTNKFLLIPESGDYFIYSQVTFRGMTSECSEIRQAGRPNKPDSITVVITKVTDSYPEPTQLLMGTKSVCEVGSNWFQPIYLGAMFSLQEGDKLMVNVSDISLVDYTKEDKTFFGAFLL | 0.89 | 0.00035 | 390000 | –
soluble recombinant of mouse FasL (His6, Pro132-Leu279) (ligand) HHHHHHPSTPSEKKEPRSVAHLTGNPHSRSIPLEWEDTYGTALISGVKYKKGGLVINETGLYFVYSKVYFRGQSCNNQPLNHKVYMRNSKYPEDLVLMEEKRLNYCTTGQIWAHSSYLGAVFNLTSADHLYVNISQLSLINFEESKTFFGLYKL | 65 | 0.0097 | 150000 | –
soluble recombinant of cynomolgus monkey LIGHT (His10, GS linker, Asp74-Val240) (ligand) HHHHHHHHHHGGGSGGGSGGGSIEGRDGHGGSWEQLIQERRSHQNNPAAHLTGANSSLTGSGGPLLWETQLGLAFLRGLDYHDGALVANKAGYYYIYSKVQLGGVGCPLGLASTITHGLYKRTPRYPEELELLVSQQSPCGRATSNSRVWWDSSFLGGVVHLEVGEEVVVRVLDERLVRLRDGTRSYFGAFMV | 1.2 | 0.00038 | 310000 | –
soluble recombinant of mouse TL1A (His6, GS linker, Ile94-Leu270) (ligand) HHHHHHGGGSGGGSGGGSITEERSEPSPQQVYSPPRGKPRAHLTIKKQTPAPHLKNQLSALHWEHDLGMAFTKNGMKYINKSLVIPESGDYFIYSQITFRGTTSVCGDISRGRRPNKPDSITMVITKVADSYPEPARLLTGSKSVCEISNNWFQSLYLGATFSLEEGDRLMVNVSDISLVDYTKEDKTFFGAFLL | 0.58 | 0.00049 | 840000 | –
soluble recombinant of human FasL (His6, Pro134-Leu281) (ligand) PSPPPEKKELRKVAHLTGKSNSRSMPLEWEDTYGIVLLSGVKYKKGGLVINETGLYFVYSKVYFRGQSCNNLPLSHKVYMRNSKYPQDLVMMEGKMMSYCTTGQMWARSSYLGAVFNLTSADHLYVNVSELSLVNFEESQTFFGLYKL | 1.3 | 0.0004 | 310000 | –
soluble recombinant of cynomolgus monkey FasL (His6, Pro133-Leu280) (ligand, also called His6-cynoFasL) PSPPPEKKEQRKVAHLTGKPNSRSMPLEWEDTYGIVLLSGVKYKKGGLVINETGLYFVYSKVYFRGQSCTNLPLSHKVYMRNSKYPQDLVMMEGKMMSYCTTGQMWAHSSYLGAVFNLTSADHLYVNVSELSLVNFEESQTFFGLYKL | 1.1 | 0.00033 | 300000 | –

Source: US20220340642A1 (Kyowa Kirin, published 2022)
